Results: paper PMC2115937

Target: epidermal growth factor receptor (EGF receptor kinase), rat liver (rat (endogenous in rat liver))
Test: polyethylene glycol precipitation of receptor-bound radioligand

- percent of 125I-EGF in endosomes that is receptor bound (10 ug EGF injected): 77%
Substance: epidermal growth factor (EGF) (from UniProt P01132 977-1029) (ligand)
